Source: the DeepSol protein solubility set

Assay: soluble on expression in E. coli; label from the status in PepcDB or PDB records

Soluble on expression in E. coli, soluble:
MGYTVAVVGATGAVGAQMIKMLEESTLPIDKIRYLASARSAGKSLKFKDQDITIEETTETAFEGVDIALFSAGSSTSAKYAPYAVKAGVVVVDNTSYFRQNPDVPLVVPEVNAHALDAHNGIIACPNCSTIQMMVALEPVRQKWGLDRIIVSTYQAVSGAGMGAILETQRELREVLNDGVKPRDLHAEILPSGGDKKHYPIAFNALPQIDVFTDNDYTYEEMKMTKETKKIMEDDSIAVSATCVRIPVLSAHSESVYIETKEVAPIEEVKAAIAAFPGAVLEDDVAHQIYPQAINAVGSRDTFVGRIRKDLDAEKGIHMWVVSDNLLKGAAWNSVQIAETLHERGLVRPTAELKFELK
SRTLQFTKMATDHSGAGNLMDCWNAGLELKSCTDEIVKFFLSQTGTSEPPVKGGIDKDCCGAIGLVVKDCWSVMFTSLGLTTMEGNNLREYCEFQAEKSELSPSPAPETLALSPVEITYPGLDY
MKNLTTIKQTNKNVKQERRKKYADLAIQGTNNSSIASKRSVELLYLPKLSSANNFQMDKNNKLLEYFKFFVPKKIKRSPCINRGYWLRLFAIRSRLNSIIEQTPQDKKIVVVNLGCGYDPLPFQLLDTNNIQSQQYHDRVSFIDIDYSDLLKIKIELIKTIPELSKIIGLSEDKDYVDDSNVDFLTTPKYLARPCDLNDSKMFSTLLNECQLYDPNVVKVFVAEVSLAYMKPERSDSIIEATSKMENSHFIILEQLIPKGPFEPFSKQMLAHFKRNDSPLQSVLKYNTIESQVQRFNKLGFAYVNVGDMFQLWESADEATKKELLKVEPFDELEEFHLFCHHYVLCHATNYKEFAFTQGFLFDRSISEINLTVDEDYQLLECECPINRKFGDVDVAGNDVFYMGGSNPYRVNEILQLSIHYDKIDMKNIEVSSSEVPVARMCHTFTTISRNNQLLLIGGRKAPHQGLSDNWIFDMKTREWSMIKSLSHTRFRHSACSLPDGNVLILGGVTEGPAMLLYNVTEEIFKDVTPKDEFFQNSLVSAGLEFDPVSKQGIILGGGFMDQTTVSDKAIIFKYDAENATEPITVIKKLQHPLFQRYGSQIKYITPRKLLIVGGTSPSGLFDRTNSIISLDPLSETLTSIPISRRIWEDHSLMLAGFSLVSTSMGTIHIIGGGATCYGFGSVTNVGLKLIAIAK
MEALKIALLGGGTVGSAFYNLVLERAEELSAFGVVPRFLGVLVRDPRKPRAIPQELLRAEPFDLLEADLVVEAMGGVEAPLRLVLPALEAGIPLITANKALLAEAWESLRPFAEEGLIYHEASVMAGTPALSFLETLRGSELLELHGILNGTTLYILQEMEKGRTYAEALLEAQRLGYAEADPTLDVEGIDAAHKLTLLARLLVDPGFPFAEVEAQGIARLTPEVLQKAEARGERVRLVASLFGEGGRWRAAVAPRRLPQDHPLARARGNALWVRARPLGEAFVTGPGAGGGATASGLFADLLRFLSGAPGHLPAPRARPPLEEGSPWPGVE
MSLFINMYRQLLSLPLSALVKNNPIPANPIEELSLNIHQPIVYVLPYTSQTDFVIFRRNCLALGLPDPAEKNEINGVKLPRYVYLDEGRRIFKSKGAKDETTTIFNKYLELHRTSESLDVQLIPVSVLWGRSPGQEDKSDLPNLRLLNGIQKTFAAIWFGRDTFVRFSQAVSLRYMVVEHGSDEKIAQKLARVAKMHFAKQRISATGPRLPNRQAMFNKLLQSEAIRRAIEDEAKSKNISIEKAQKEAYKILDEIAADVSHSSLRAVDRFLRWLWNKLYSGINVQNSNRVRKLALEGHEIVYVPCHRSHIDYLLLSYVLYHQGLVPPHIAAGINLNFWPIGRMFRSWGAFFIRRTFKGNRLYSAIFREYLSELFHRGYSVEYFIEGGRSRTGRLLAPKTGMMSMTLQALQHSQTRPISIVPVYVGYEHVLEVDTYAKELRGAAKEKENAGLVLRVIKKLRNLGQGFVNFGEPITLSNYLSQHFPDWKEQNHEEKPQWFTPAVNNISKQVMININKAAAVNSMNLVGTALLSSRQRALSREQLLEQLSSYQQLLQNVPYSTDVVLPNVTPQAMLEHVLALDRIGVLIEKDNFGEIVRLERSSAVLMTYYRNNIQHLFVLPSLVASIILHYEAIQKDLLLDAIRKIYPFLQGELFLHFNEDELNVQIHQIINEFARQSVINSNDNFLSINKSKVRILQLWSAGMLEILQRYYITVTILQKQPAISRAELEKESQLVAQRLSVLHGINAPEFFDKAVFSSFIANLKEQRYFDESGYTVLDKIEELASTLSHLISTEICLTVKGTIEKSEDLSSEGHHHHHH
MSLKLIASDMDGTLLDAKMSITNDNASAIREAERLGIEFMVATGRAYTEAKPALEEAGIDCAMITLNGAQVFDKDGHSLFTAGIEKETVTEVLTILSQHNVYYEISTNKGIFSEHQEKRIENFAAHIAESMPHLTYKVAIAMASAHLSLLHITYVDRLDDILKDDSIEVLKIIGFSMDGPKVLGPAGMEVEELDDLVVTSSALNNIEINHRLAQKGIAVARVAKERGIPAEQVMTIGDNLNDVSMIQWAGVSFAMGNAELELKEYAKYETATNLENGVGEAILRAIREDEGHHHHHH
MKASVRWVECPRDAWQGFSRFIPTEEKVAFLNELLEAGFAHLDLTSFVSPKWVPQMQDAEEVLKALPPPNGRTYLAIVANEKGLERALAAPNLTHVGYPFSLSETFQQRNTNRSIEASWPLVGAMVERTEGRLGLVVYLSMAFGNPYGDPWSVEAVLEALARLKEMGVREIALADTYGVAEPERIHEVLKAAVARFGPEGLGAHLHARPEGALAKVEAVLAAGVTWLEGALAGVGGCPFAGDELVGNLPTEVVLPHLEKRGLATGVDLSRLPLLAEEAARLKALYA

Soluble on expression in E. coli, not soluble:
MNLNKNLPTGTRDKLFREARASYQIEQQVNHYFAKRGFKRIETPVIEFEDVFSSEHQADAKLYRFFDEKGRLTVLRPDMTLPIGRVVSTTGVTLPLKLSYSGKIFRANEDFGGEQNEQTQAGIEIIGYPSIKAEIECILSGIGVLNALEIPNFQIELGHAAIYRRVIHLLNLPETAEMDFRLLIQNKSLTGIQQFVTENPSTLDDFILALPRLFGPATTILKQAKNLTTDKGILTALTEMETIVDAVSYAADISVDLGLVQDFHYYTGIIFRGYADLAADNFLSGGRYDHLLEQFTSSSSPAVGLALNLDSLTT
MAFHMPLKELQPVDTSLPEHVVKGAVVIDKEFTIWNHRAVIPSNALHTVFITINLLEQKLTDVVKMAARSMNLSEDDSYGLMADKPKRFITDDNLNSLGSGFILTLCASPDHYVKRITEILTEGNNISQMENAVKTLDEFSLDPALIEAFYRCSSLELLFSLIRDDRVCMSSTLLSTCLRALSSMLELAVGDFTWKSVPNDVVVSMASLVTGKAKREEANTLLAALQMLEQLVIGDDTTRDWILEEVPIETLIRHVEKSDERIALCALSLMNSMIRRCPDDEKRFELIKSLEVVPFRNAVHSSLLRGGGGVRNLNAIEQLVEVQRSLISAYETSPPTDAEVQKILDIESSEDVSEEIREMWKSQIGEHRCGRLAAISMVQFAEKSPQDLRMLISENTMRIEGGKWQLIPMWMRCCDIAAELFRVIPGRDELDRLIVVLFSTETPFPAVFACIVHLFHRTWREMQAKGGEMEKVACVVLEQLRHVLKRREIQDVEELSADLETFSYRAMQEIWREEQLGKENIQLHSEAVIQLKSKLRPKMEELVRINHLNYLKLGAVFRKPQKSKSLAKLAFWHWKLDASEKMLTITGCDGENYVEGVQRDDIRQVWIKDIADVTNNDEIDRKASSSRFTSSPSTQMLRGIRVQLKTTNDMKEGEVLMALTSDETQSVIWLEGLAELIGSKAVKSETDAMVERMLKMELRVRLLNVKLTNPEEKPEIPPIPDDIKSFISKF
IGVFLKDKQKVLVVEESEPFIEEQIRIEGNVYGKKTGHLPYGQVTSKDIDFALEHIEEEKVSRPADPGLIESRKKSRASICEDCPYLPLYNFLRISGVRVAGDMGCSVRSAPEPLSAVDVSFALGSAISVACGFERKGIAVIGDFALAHSGILGLLNAVSEGHEVLVLVLQNEVAAMTGGQKVPDLRKVIEAIVPDVSVFDMDGRKEKEQASGSELSDLITEKLALPGISVIFI
MGSDKIHHHHHHMINTALRLAAPEIEAFLQGRIIAAMPNKFITPGREFALCPSDASINLLPVEQYYRSSFLPIAQSAFAQLNIQGVLIQPQQMNLLIDEEQLKLPILAYETVLIKTWAKCELCQIINNTESFAALSQLTIWTTEALKEILRQKQNIFLAYLRVYELPKSIEVPIKSNSQFVALSQPLNVSEDKPVLKDRTFAQRKHQLEKLQPPLHPELEELQSAIASLSISQPAAKQLDDDIKVFLGWSSDKLTNPLDSDLPWIQNIAKVGNSSDGHTFEKLVRRGLLKLGFTGSGLNPDATGGAGGMDFYAEQPYPIVGECKATKTEKVTDGTPAQLLKIGMNHLGKFQYDNSIKLIVAAGELNFYALRTATENQMNIVSPETLQKLVELQAHYKNSINLLDLSGNKRE
MREQISVLTQNLSQTIVGKDEAIRLVLVALLSGGHALLEDVPGVGKTLLAKSLARSINGKFQRVQCTPDLLPTDITGTNIWNPSSREFEFLPGPAFANILLADEINRATPRTQAALLEVMEEKQVTVDGETRLVPHPFFVIATQNPIEYQGTFPLPEAQLDRFALSLSLGYPSEAEELKMLQRQQNPEAIAVGDLESCISLEEVEALQKAVRQVKLTEDLQQYLLRLVRASRTDEDVTLGVSPRGTTALQRATQAFAFLEERDYAIDDDVKFVAPHVLAHRLIPASGKDPKAILQRLLDSVPILEHHHHHH
MGSDKIHHHHHHMSSIIENLQLAAQQVHLINLYQANSEVVYTGYIDRLAPDGVVVNTYDDAGLQDGAVFMRYDVIDEVEMMSEDLDNMAFRLENATTEGLNSVPQPTVALDDQRPVLTQLVTQAQTDHQVVLLVLEDNENYLEGQVQQVTDQTITFKTFDKFNFKNNGQQEIPLAAIQILEFCGNELLLESAFVKTIHTHRATIKVSEFDDVDHTLNNALNEHQLIAIRSADGSDMFFVGFINALNADSVLLNLIDMTGQFGGYTLCRRSLIESVTTQSDYLQTMRGFIELNRQYELNVQPVLNDERLFDATTDLFDSILRQAATFNNLVHITTENPMLPAMTGYPGTLTNGHFIFYNVDDDNQINHVGTMIELDQVVELSFGYMDAYLLEKRLKSTGNL
MENQVEVMTYAHLKEIMQALEANEAITEDTKVFIDTGWDSVQEVAPDAVSIEKVAKFTVADVLTNESFAGYSLEEKAEKMNAEGDLETAIIIRNLY
MLLHTFFDDSKTSVEETPRMFVARLFGSPVSTSIIPTEKESINNNNQETAKMPLDPMDSLWMSKAPQVSDLVVQPNVTFKAVTGGSPHSPSASIPIAGADDSIRPDYDTDCLWKPPTRSARVQKERTISMDSTDSEIGALGGRKFSTNEGASPAPTSPIDAQPRARRMSISEMLFGSSPKSFSWGMESNTTNTTTTSNSGGGDIGERKMSITDDPRFKDFMKHQSKIIGDDGISAAGFKRSNYMKD
MSYAKVSHWQMASTEQLIIPPNNDPRPDDQLVIVVVTADGIASPIPLNVSRREVIRQVEMLNRNLTAANRGDNYQGQASQLYDWFIKPIKLILENKKIENISFILDRGLRSLPMATMYDRQSGQYLIEDYSVGLMPSLSLTNRDYAPLTGAQILAMGAEEFANQNPLPAAAVEVDTITNQLWRGSAFLNDRFTVDNFVQSLATKEYRLVHLATHGEFLPGNRNNSFVVFSDRSLDLDEFANVGLDKPIDLMVLSACRTAVGDFDAELGFAGLAVKTGVKTAIGSLWYVSDEATFALMTSFYDRLQPAPIKAKALQQAQLSLLRGEIRVVDGNLVLGDGTNISLADLPADIRQRLATQDLSHPYFWSGFTLVGSPWLEHHHHHH
HNGWTWEASLNLSANRNKLTELASGSKDDKANNWFVGHPIDCIYDYEKVGLWNSDDPDFQYLDILEPGGNEGMIKVKYTGDRDASGKPTRAIGPEDRQIISLEPKFQGGFSTRVAYKGFDLNVITAFRCGGKLISTLHHSNGYLNMLTGRRGQVDVDYWTPENKGAKYPKPGGIQSGDNPKYGSTLGYFDSSYWKVRNITLGYNFEKQAWLTRMGIQSLRAYLSVQNPFIICSPFHKETGLDPETNSYGNENVAVTEGIQKRFLTVGTNSPSTRNYLFGINLTF
